For assay [1], the target named is T1, human GIPR (human), P48546.
T1 chain: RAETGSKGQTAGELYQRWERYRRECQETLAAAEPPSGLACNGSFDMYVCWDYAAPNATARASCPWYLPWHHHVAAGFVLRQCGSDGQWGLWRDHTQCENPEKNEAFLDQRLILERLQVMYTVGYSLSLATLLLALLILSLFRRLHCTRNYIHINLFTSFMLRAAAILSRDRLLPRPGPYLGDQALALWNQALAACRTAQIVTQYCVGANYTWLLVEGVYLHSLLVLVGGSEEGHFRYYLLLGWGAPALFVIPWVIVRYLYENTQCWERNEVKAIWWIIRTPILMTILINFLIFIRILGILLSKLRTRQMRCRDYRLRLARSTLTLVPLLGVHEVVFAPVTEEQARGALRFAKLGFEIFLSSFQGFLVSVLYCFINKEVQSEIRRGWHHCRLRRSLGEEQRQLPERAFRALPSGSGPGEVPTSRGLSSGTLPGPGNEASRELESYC

The target in assay [2] is T2, human GLP-1R (human), P43220.
T2 chain: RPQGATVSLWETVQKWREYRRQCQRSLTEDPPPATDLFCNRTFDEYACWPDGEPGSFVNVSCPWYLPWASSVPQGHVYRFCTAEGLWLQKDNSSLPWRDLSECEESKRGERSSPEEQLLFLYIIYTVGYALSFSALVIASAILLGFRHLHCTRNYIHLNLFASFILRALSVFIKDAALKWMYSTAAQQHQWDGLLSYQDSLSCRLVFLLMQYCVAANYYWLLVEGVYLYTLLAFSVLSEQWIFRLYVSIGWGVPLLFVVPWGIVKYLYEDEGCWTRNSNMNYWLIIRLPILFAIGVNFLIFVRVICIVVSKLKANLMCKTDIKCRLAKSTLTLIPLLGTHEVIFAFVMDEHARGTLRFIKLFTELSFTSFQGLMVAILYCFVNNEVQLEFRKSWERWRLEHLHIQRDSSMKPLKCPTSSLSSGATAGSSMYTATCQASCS

Non-standard residues stand in square brackets, D forms with d. No end group written: not given here. NMeY = CN[C@@H](Cc1ccc(O)cc1)C(=O)O; αMeF = C[C@](N)(Cc1ccccc1)C(=O)O; dIva = CC[C@@](C)(N)C(=O)O; Iva = CC[C@](C)(N)C(=O)O; Aib = CC(C)(N)C(=O)O

B1: Compound 129 (peptide)
peptide: Me-Y[Aib]EGTFISDYSIALDRIAQQSFVNWLLAQRPSSGAPPPS
modifications: not fully specified (residue 1, C-terminus); ends and bridges not checked
For B1, the Agonist activity (EC50, M) in assay [1] is 1.7e-12 M; in assay [2], more than 1e-06 M.

B2: Compound 131 (peptide)
peptide: Me-Y[Aib]EGTFISDYSI[dIva]LDRIAQQDFVNWLLAQRPSSGAPPPSR
modifications: not fully specified (residue 1, C-terminus); ends and bridges not checked
On to B2, for which the Agonist activity (EC50, M) was 1.9e-12 M in assay [1] and more than 1e-06 M in assay [2].

B3: Compound 155 (peptide)
peptide: Ac-Y[Aib]EGTFISDYSIALDRIAQ[Aib]S[αMeF]VNW[Iva]LAQRPSSGAPPPSR
modifications: ends and bridges not checked
With B3, the Agonist activity (EC50, M) in assay [1] is 1.7e-12 M; in assay [2], more than 1e-06 M.

B4: Compound 147 (peptide)
peptide: Me-Y[Aib]EGTFISDYSI[dIva]LDRIHQ[Aib]NFVNW[Iva]LAQRPSSGAPPPSR
modifications: not fully specified (residue 1, C-terminus); ends and bridges not checked
B4: the Agonist activity (EC50, M) in assay [1] was 1.5e-12 M; in assay [2] it was more than 1e-06 M.

B5: Compound 156 (peptide)
peptide: Ac-Y[Aib]EGTFISDYSIALDR[Aib]HQ[Aib]NFVNW[Iva]LAQRPSSGAPPPSR
modifications: ends and bridges not checked
In the case of B5, the Agonist activity (EC50, M) was 4.8e-12 M in assay [1] and more than 1e-06 M in assay [2].

B6: Compound 144 (peptide)
peptide: [NMeY][Aib]EGTFISDYSI[dIva]LDRIHQQDFVNWLLAQRPSSGAPPPSR
modifications: not fully specified (N-terminus, C-terminus); ends and bridges not checked
Consider B6, for which the Agonist activity (EC50, M) is 2.2e-12 M in assay [1] and more than 1e-06 M in assay [2].

B7: Compound 133 (peptide)
peptide: Me-Y[Aib]EGTFISDYSIALDRIAQQNFVNW[Iva]LAQRPSSGAPPPSR
modifications: not fully specified (residue 1, C-terminus); ends and bridges not checked
Regarding B7, the Agonist activity (EC50, M) is 1.7e-12 M in assay [1] and more than 1e-06 M in assay [2].

B8: Compound 138 (peptide)
peptide: [NMeY][Aib]EGTFISDYSI[dIva]LDRIAQQSFVNWLLAQRPSSGAPPPSR
modifications: not fully specified (N-terminus, C-terminus); ends and bridges not checked
B8: the Agonist activity (EC50, M) is 2.2e-12 M in assay [1] and more than 1e-06 M in assay [2].

B9: Compound 141 (peptide)
peptide: [NMeY][Aib]EGTFISDYSIALDRIHQQD[αMeF]VNWLLAQRPSSGAPPPSR
modifications: not fully specified (N-terminus, C-terminus); ends and bridges not checked
Consider B9, for which the Agonist activity (EC50, M) in assay [1] was 1.9e-12 M; in assay [2], more than 1e-06 M.

B10: Compound 142 (peptide)
peptide: [NMeY][Aib]EGTFISDYSIALDRIHQ[Aib]NFVNWLLAQRPSSGAPPPSR
modifications: not fully specified (N-terminus, C-terminus); ends and bridges not checked
As to B10, the Agonist activity (EC50, M) in assay [1] was 2.3e-12 M; in assay [2], more than 1e-06 M.

B11: Compound 135 (peptide)
peptide: Me-Y[Aib]EGTFISDYSIALDRIAQ[Aib]D[αMeF]VNWLLAQRPSSGAPPPSR
modifications: not fully specified (residue 1, C-terminus); ends and bridges not checked
On to B11, for which the Agonist activity (EC50, M) in assay [1] was 1.8e-12 M; in assay [2] it was more than 1e-06 M.

Values taken from US20180298070A1, “PEPTIDE COMPOUND” (Takeda Pharmaceutical Company Limited, published 2018).
